Results: patent US5885961A, “Methods of using epithelins to modulate cell proliferation” (Bristol-Myers Squibb Company, priority 1995, dated 1999)
Entries after “also recorded” stand apart in the source; their conditions may differ. Like-named read-outs stand apart in the source and are kept apart here.

What was measured:
mink lung CCL 64 cells = assay: 125I-deoxyuridine incorporation into DNA, CCL 64; type: cell-based
Balb/MK cells [1] = assay: Murine keratinocyte growth assay (cell count); type: cell-based; details: FIG. 16A
Description: FIG. 16(A-B). (FIG. 16A) Effect of epithelin 1 and epidermal growth factor (EGF) on the growth of Balb/MK cells. Assays were performed as described in Section 6.2., infra. .circle-solid., epithelin 1; o, EGF (FIG. 16B) Effect of various concentrations of epithelin 2 on the epithelin 1 (20 ng/ml) induced growth of murine keratinocytes.
Balb/MK cells were plated at 1×10^4 cells per well in 1 ml of low calcium medium (Weissman and Aaronson, 1983, Cell 32:599-606; Carpenter and Zendegut, 1985, Anal. Biochem. 153:279-282) in 24-well Costar plates and incubated at 37° C. for 4-6 hours. Then media were removed and replaced with 1 ml of medium containing various concentrations of the test compound in triplicate. The control wells received only medium without any test material. The plates were incubated at 37° C. for 4 days, then medium was removed, wells were rinsed two times with 1 ml of phosphate-buffered saline, and the cells were detached with trypsin-EDTA and counted.

NRK cells = assay: Mitogenic activity on NRK cells in monolayer; type: cell-based, rat
[2] = test system: human fibroblasts and several other human tumor cells; assay: 125I-deoxyuridine incorporation into DNA, human fibroblasts and other human tumor cells; type: cell-based; details: maximum dose tested: 20 ng/ml epithelin 1, 270 ng/ml epithelin 2
monkey kidney COS1 cells = assay: 125I-deoxyuridine incorporation into DNA, COS1; type: cell-based
NRK-SA6 cells = assay: Soft agar colony assay in the presence of TGFβ; type: cell-based, rat; details: in the presence of TGFβ 1 ng/ml, FIG. 17
Description: FIG. 17. Effect of epithelin 1 and 2 on NRK-SA6 cell colony formation in soft agar in the presence of TFGβ (1 ng/ml). The colony formation assay used is described in Section 6.2.3, infra. Solid bars, epithelin 1; stippled bar, epidermal growth factor; open bar, epithelin 2; hatched bar, 20 ng/ml epithelin 1 plus 500 ng/ml epithelin 2.
A 0.38 ml base layer of 0.5% agar (Agar Noble; Difco Laboratories, Detroit, Mich.) in DMEM containing 10% heat inactivated FBS was added to 24 well Costar tissue culture plates. 0.38 ml of 0.3% agar containing the same medium-FBS mixture, 6-12×10^3 test cells, and the test proteins at various concentrations were overlaid on the basal layer of agar. The plates were incubated at 37° C. in a humidified atmosphere of 5% CO2 in air. Colonies were enumerated unfixed and unstained, and the number of colonies was scored between days 7 and 10. Colonies were defined as a cluster of at least eight cells.

[3] = Resistance of bioactivity to chemical, heat and enzyme treatment; type: physicochemical
Description: Epithelin 1 and epithelin 2 are resistant to treatment with 1M acetic acid, 1M ammonium hydroxide, 6M urea, 0.01M sodium metaperiodate, to heating at 56° C. for 30 minutes, and to treatment with various glycosidases or lipases. However, epithelin activity was sensitive to reduction, to reduction and 4-vinylpyridine treatment, and to digestion with proteinases such as trypsin, endoproteinase Lys-C, and endoproteinase Glu-C (V8).

[4] = test system: human colon carcinoma cell line HCT 116; assay: 125I-deoxyuridine incorporation into DNA, HCT 116; type: cell-based; details: maximum dose tested: 20 ng/ml epithelin 1, 270 ng/ml epithelin 2
EGF receptors = EGF receptors (Homo sapiens, UniProt P00533); assay: Binding of 125I-EGF to its receptors
Balb/MK cells [5] = assay: Growth stimulatory activity (GSA), 125I-deoxyuridine incorporation into DNA of murine keratinocytes; type: cell-based; details: FIG. 15A
Description: FIG. 15(A-B). (FIG. 15A) Effect of epithelin 1 and epithelin 2 on the stimulation of ^125 I-deoxyuridine incorporation into DNA of the murine keratinocyte cell line Balb/MK. 2,000-4,000 cells were plated per well in 96 well plates in low-calcium medium containing 5% dialyzed FBS. Then GSA assays were performed as described in Section 6.2., infra. .circle-solid., epithelin 1; o, epithelin 2. (FIG. 15B) Effect of various concentrations of epithelin 2 on epithelin 1 (20 ng/ml) elicited incorporation of ^125 I-deoxyuridine into DNA of Balb/MK cells.
Balb/MK cells were also used as indicator cells in 96 well plates to assess the growth inhibitory activity (GIA) or growth stimulatory activity (GSA) of a test material using ^125 I-deoxyuridine incorporation into DNA as described in the previous section.

[6] = test system: A431 human epidermoid carcinoma cells; assay: Cell growth inhibitory activity (GIA), 125I-deoxyuridine incorporation into DNA; type: cell-based; details: for potency relative to epithelin 2 in inhibiting A431 cells: epithelin 1 vs epithelin 2
Description: The cell growth inhibitory activity (GIA) assays were performed in flat-bottom 96 well plates (Falcon 3072). Human epidermoid carcinoma of vulva cells (A431) were used as test cells for GIA. 3.5×10^3 cells in 50 μl of test medium (DMEM supplemented with 5% heat inactivated fetal bovine serum (FBS), penicillin/streptomycin (PS) and glutamine) were placed in all wells except peripheral wells. The peripheral wells received 50 μl PBS. Three hours later, 50 μl of test sample in test medium was added to each well, while control wells received only 50 μl of test medium. Three wells were used for each concentration of test sample. Plates were incubated at 37° C. for 2-3 days. Then, 100 μl of a solution of […] (^125 I-IUdR, 4Ci/mg-0.5 mCi/ml, 2 μl/ml in test medium) was added to each well and plates were incubated at 37° C. After 4-6 hours, the medium was aspirated from the wells, which were then washed once with 200 μl PBS. Then, 200 μl methanol was added to each well, plates were incubated for 10 minutes at room temperature, and the methanol was removed by aspiration. 200 μl of 1M sodium hydroxide was added to each well, the plates were incubated for 30 minutes at 37° C. Sodium hydroxide was removed with titertek plugs (Flow Labs). The plugs were transferred into 12×75 mm plastic tubes and counted in a gamma counter to quantify ^125 I-IUdR incorporation.

B1: epithelin 1: single chain polypeptide of 56 amino acid residues, 12 cysteines, purified from rat kidney; also expressed recombinantly in COS cells (protein)
chain: LPGYPVNEVKCDLEVSCPDGYTCCRLNTGAWGCCPFTKAVCCEDHIHCCPAGFQCHTETGTCEL
Mink lung CCL 64 cells
  effect on 125I-deoxyuridine incorporation into DNA: significantly inhibited
Balb/MK cells [1]
  effect on growth of Balb/MK cells (rodent keratinocytes): did not proliferate in the absence of EGF or epithelin 1
NRK cells
  mitogenic activity on NRK cells in monolayer: exhibited mitogenic activity
[2]
  effect on human fibroblasts and several other human tumor cells: Neither protein exhibited any significant effect
Monkey kidney COS1 cells
  effect on 125I-deoxyuridine incorporation into DNA: significantly inhibited
NRK-SA6 cells
  anchorage-independent growth (colony formation in soft agar) of NRK cells: induced the anchorage-independent growth of NRK cells in a dose-dependent manner; also recorded: can induce anchorage-independent growth
[3]
  resistance to 1M acetic acid, 1M ammonium hydroxide, 6M urea, 0.01M sodium metaperiodate, heating at 56° C. for 30 minutes, glycosidases or lipases: stable
  sensitivity of activity to reduction, reduction and 4-vinylpyridine treatment, and proteinases (trypsin, Lys-C, Glu-C): sensitive
[3]; listed as Epithelin 1
  resistance to 1M acetic acid, 1M ammonium hydroxide, 6M urea, 0.01M sodium metaperiodate, heating at 56° C. for 30 minutes, glycosidases or lipases: resistant
[4]
  effect on growth of HCT 116 cells: slighly inhibited
EGF receptors
  effect on binding of 125I-EGF to its receptors: Neither epithelin 1 nor epithelin 2 significantly affected the binding
Balb/MK cells [5]
  effect on 125I-deoxyuridine incorporation into DNA of Balb/MK cells: stimulated the ^125 I-deoxyuridine incorporation in a dose-dependent manner
[6]
  effect on A431 cells: inhibitory effect
  potency relative to epithelin 2 in inhibiting A431 cells: ~36 times
[6]; A431 cells, purified protein, FIG. 14
  50% inhibition of DNA synthesis (125I-deoxyuridine incorporation): 12.8 ng/well
[6]; A431 cells, read-out: concentration for 50% inhibition of 125I-deoxyuridine incorporation
  IC50: ~21 nM
[6]; listed as Epithelin 1
  potency relative to epithelin 2 in inhibiting A431 cells: about 36 times
[6]; final purification step Anal. Tsk-250, pool 1b
  Specific Activity: 20,609 Units/mg
[6]; final purification step Anal. Tsk-250, pool 2b
  Specific Activity: 21,048 Units/mg
[6]; one unit = amount inhibiting 125I-deoxyuridine incorporation into A431 cells by 50%
  specific activity of purified protein (GIA): about 2.1×10^4 units/mg protein
[6]; purified proteins
  calculated specific activity relative to epithelin 2: ten
[6]; recombinant, supernatant of cβrEPN1 transfection partially purified on TSK-250, A431 cells
  growth inhibitory activity secreted by transfected COS cells: approximately 25 GIA units/100 mm plate

B2: epithelin precursor: unprocessed 589-residue rat preprotein (SEQ ID NO:2) with 7 cysteine-rich motifs, expressed in COS cells (protein)
chain: MWILVSWLALVARLVAGTQCPDGQFCPVACCLDQGGANYSCCNPLLDTWPIITSRRLDGSCQIRDHCPDGYSCLLTVSGTSSCCPFSEGVSCDDGQHCCPRGFHCSADGKSCSQISDSLLGAVQCPGSQFECPDSATCCIMIDGSWGCCPMPQASCCEDRVHCCPHGASCDLVHTRCISPTGTHPLLKKFPAQRTNRAVAFPFSVVCPDAKTQCPDDSTCCELPTGKYGCCPMPNAICCSDHLHCCPQDTVCDLIQSKCISKDYTTDLMTKLPGYPVNEVKCDLEVSCPDGYTCCRLNTGAWGCCPFTKAVCCEDHIHCCPAGFQCHTETGTCELGVLQVPWMKKVTASLSLPDPQILKNDVPCDDFSSCPSNNTCCRLSSGDWGCCPIPEAVCCLDHQHCCPQGFKCMDEGYCQKGDRMVAGLEKMPVRQTTLLQHGDIGCDQHTSCPVGQTCCPSLKGSWACCQLPHAVCCEDRQHCCPAGYTCNVKARTCEKDAGSVQPSMDLTFGSKVGNVECGAGHFCHDNQSCCKDSQGGWACCPYVKGVCCRDGRHCCPIGFHCSAKGTKCLRKKTPRWDILLRDPAPRPLL
Balb/MK cells [1]
  effect on growth of Balb/MK cells (rodent keratinocytes): no activity
NRK-SA6 cells
  anchorage-independent growth (colony formation in soft agar) of NRK cells: no activity
[6]
  effect on A431 cells: no activity
